The record followed here is article PMC5656587, “Structure determination and activity manipulation of the turfgrass ABA receptor FePYR1” (Scientific Reports, 2017).

For this test, the target named is T1, biotin-MBP-tagged AtHAB1 (residues 172-511), Q9CAJ0.
T1 chain: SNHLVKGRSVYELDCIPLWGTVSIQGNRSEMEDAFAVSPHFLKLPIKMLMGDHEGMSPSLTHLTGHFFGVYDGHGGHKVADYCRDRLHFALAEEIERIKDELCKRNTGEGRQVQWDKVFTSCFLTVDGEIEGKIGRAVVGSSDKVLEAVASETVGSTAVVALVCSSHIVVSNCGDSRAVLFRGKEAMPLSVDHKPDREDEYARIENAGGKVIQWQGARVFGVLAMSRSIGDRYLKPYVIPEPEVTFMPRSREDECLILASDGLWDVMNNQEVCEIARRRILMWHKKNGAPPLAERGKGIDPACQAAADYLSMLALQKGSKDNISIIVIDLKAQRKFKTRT
The test is described as follows: AlphaScreen. To be noted: chain shown with the change, read off a plot.

Setting [1] is: ABA (10 μM), parent: est. 12000.
Setting [2] is: ABA (100 μM), parent: est. 8400.
Where [3] appears, read: DMSO (no ABA), parent: est. 2200.

B1: H6-SUMO-tagged FePYR1 E131A (protein)
chain: MEQQPAAAEPEVPAGLGLTAAEYAELQPTVEAYHRYAVGPGQCSSLVAQRIEAPAAAVWAIVRRFDCPQVYKHFIRSCALRPDPDAGDELRPGRLREVSVISGLPASTSTERLDLLDDARRAFGFTITGGAHRLANYRSVTTVSELAPAAPAKICTVVLESYVVDVPEGNSEEDTRLFADTVVRLNLQKLKSLAEANATSAAAQATPPPQAE
Take B1: the response (photon counts) is 4100 (ABA (2 μM), parent: est. 6900); 8000 under setting [1]; 7500 under setting [2].

B2: H6-SUMO-tagged FePYR1 K72R (protein)
chain: MEQQPAAAEPEVPAGLGLTAAEYAELQPTVEAYHRYAVGPGQCSSLVAQRIEAPAAAVWAIVRRFDCPQVYRHFIRSCALRPDPDAGDELRPGRLREVSVISGLPASTSTERLDLLDDARRAFGFTITGGEHRLANYRSVTTVSELAPAAPAKICTVVLESYVVDVPEGNSEEDTRLFADTVVRLNLQKLKSLAEANATSAAAQATPPPQAE
On to B2, for which the response (photon counts) under setting [2] amounted to 1300.

B3: H6-SUMO-tagged FePYR1 V182L (protein)
chain: MEQQPAAAEPEVPAGLGLTAAEYAELQPTVEAYHRYAVGPGQCSSLVAQRIEAPAAAVWAIVRRFDCPQVYKHFIRSCALRPDPDAGDELRPGRLREVSVISGLPASTSTERLDLLDDARRAFGFTITGGEHRLANYRSVTTVSELAPAAPAKICTVVLESYVVDVPEGNSEEDTRLFADTLVRLNLQKLKSLAEANATSAAAQATPPPQAE
Take B3: the response (photon counts) (ABA (5 μM), parent: est. 17000) was determined as 3300 and the response (photon counts) under setting [3] was found to be 2000.

B4: H6-SUMO-tagged FePYR1 K72A (protein)
chain: MEQQPAAAEPEVPAGLGLTAAEYAELQPTVEAYHRYAVGPGQCSSLVAQRIEAPAAAVWAIVRRFDCPQVYAHFIRSCALRPDPDAGDELRPGRLREVSVISGLPASTSTERLDLLDDARRAFGFTITGGEHRLANYRSVTTVSELAPAAPAKICTVVLESYVVDVPEGNSEEDTRLFADTVVRLNLQKLKSLAEANATSAAAQATPPPQAE
As to B4, the response (photon counts) under setting [2] is 1200.

B5: H6-SUMO-tagged FePYR1 L185A (protein)
chain: MEQQPAAAEPEVPAGLGLTAAEYAELQPTVEAYHRYAVGPGQCSSLVAQRIEAPAAAVWAIVRRFDCPQVYKHFIRSCALRPDPDAGDELRPGRLREVSVISGLPASTSTERLDLLDDARRAFGFTITGGEHRLANYRSVTTVSELAPAAPAKICTVVLESYVVDVPEGNSEEDTRLFADTVVRANLQKLKSLAEANATSAAAQATPPPQAE
On to B5, for which the response (photon counts) by setting is: (ABA (5 μM), parent: est. 17000) 18000; under setting [3], 2300.

B6: H6-SUMO-tagged FePYR1 E160A (protein)
chain: MEQQPAAAEPEVPAGLGLTAAEYAELQPTVEAYHRYAVGPGQCSSLVAQRIEAPAAAVWAIVRRFDCPQVYKHFIRSCALRPDPDAGDELRPGRLREVSVISGLPASTSTERLDLLDDARRAFGFTITGGEHRLANYRSVTTVSELAPAAPAKICTVVLASYVVDVPEGNSEEDTRLFADTVVRLNLQKLKSLAEANATSAAAQATPPPQAE
Take B6: the response (photon counts) is, setting by setting: (ABA (2 μM), parent: est. 6900) 2600; under setting [1], 4900; under setting [2], 9000.

B7: H6-SUMO-tagged FePYR1 I75V (protein)
chain: MEQQPAAAEPEVPAGLGLTAAEYAELQPTVEAYHRYAVGPGQCSSLVAQRIEAPAAAVWAIVRRFDCPQVYKHFVRSCALRPDPDAGDELRPGRLREVSVISGLPASTSTERLDLLDDARRAFGFTITGGEHRLANYRSVTTVSELAPAAPAKICTVVLESYVVDVPEGNSEEDTRLFADTVVRLNLQKLKSLAEANATSAAAQATPPPQAE
Turning to B7, the response (photon counts) is 16000 (ABA (5 μM), parent: est. 17000) and 2100 under setting [3].

B8: H6-SUMO-tagged FePYR1 H132A (protein)
chain: MEQQPAAAEPEVPAGLGLTAAEYAELQPTVEAYHRYAVGPGQCSSLVAQRIEAPAAAVWAIVRRFDCPQVYKHFIRSCALRPDPDAGDELRPGRLREVSVISGLPASTSTERLDLLDDARRAFGFTITGGEARLANYRSVTTVSELAPAAPAKICTVVLESYVVDVPEGNSEEDTRLFADTVVRLNLQKLKSLAEANATSAAAQATPPPQAE
Turning to B8, the response (photon counts) under setting [2] was found to be 650.

B9: H6-SUMO-tagged FePYR1 N186A (protein)
chain: MEQQPAAAEPEVPAGLGLTAAEYAELQPTVEAYHRYAVGPGQCSSLVAQRIEAPAAAVWAIVRRFDCPQVYKHFIRSCALRPDPDAGDELRPGRLREVSVISGLPASTSTERLDLLDDARRAFGFTITGGEHRLANYRSVTTVSELAPAAPAKICTVVLESYVVDVPEGNSEEDTRLFADTVVRLALQKLKSLAEANATSAAAQATPPPQAE
For the molecule B9, the response (photon counts) is 1200 (ABA (2 μM), parent: est. 6900); 3900 under setting [1]; 5800 under setting [2].

B10: H6-SUMO-tagged FePYR1 R133A (protein)
chain: MEQQPAAAEPEVPAGLGLTAAEYAELQPTVEAYHRYAVGPGQCSSLVAQRIEAPAAAVWAIVRRFDCPQVYKHFIRSCALRPDPDAGDELRPGRLREVSVISGLPASTSTERLDLLDDARRAFGFTITGGEHALANYRSVTTVSELAPAAPAKICTVVLESYVVDVPEGNSEEDTRLFADTVVRLNLQKLKSLAEANATSAAAQATPPPQAE
As for B10, the response (photon counts) turned out to be 600 (ABA (2 μM), parent: est. 6900); 2300 under setting [1]; 3900 under setting [2].

B11: H6-SUMO-tagged FePYR1 P105A (protein)
chain: MEQQPAAAEPEVPAGLGLTAAEYAELQPTVEAYHRYAVGPGQCSSLVAQRIEAPAAAVWAIVRRFDCPQVYKHFIRSCALRPDPDAGDELRPGRLREVSVISGLAASTSTERLDLLDDARRAFGFTITGGEHRLANYRSVTTVSELAPAAPAKICTVVLESYVVDVPEGNSEEDTRLFADTVVRLNLQKLKSLAEANATSAAAQATPPPQAE
Turning to B11, the response (photon counts) by setting is: (ABA (2 μM), parent: est. 6900) 1400; under setting [1], 3300; under setting [2], 5700.

B12: H6-SUMO-tagged FePYR1 E131D (protein)
chain: MEQQPAAAEPEVPAGLGLTAAEYAELQPTVEAYHRYAVGPGQCSSLVAQRIEAPAAAVWAIVRRFDCPQVYKHFIRSCALRPDPDAGDELRPGRLREVSVISGLPASTSTERLDLLDDARRAFGFTITGGDHRLANYRSVTTVSELAPAAPAKICTVVLESYVVDVPEGNSEEDTRLFADTVVRLNLQKLKSLAEANATSAAAQATPPPQAE
B12: the response (photon counts) runs as follows: (ABA (5 μM), parent: est. 17000) 18000; under setting [3], 1900.

B13: H6-SUMO-tagged FePYR1 I127V (protein)
chain: MEQQPAAAEPEVPAGLGLTAAEYAELQPTVEAYHRYAVGPGQCSSLVAQRIEAPAAAVWAIVRRFDCPQVYKHFIRSCALRPDPDAGDELRPGRLREVSVISGLPASTSTERLDLLDDARRAFGFTVTGGEHRLANYRSVTTVSELAPAAPAKICTVVLESYVVDVPEGNSEEDTRLFADTVVRLNLQKLKSLAEANATSAAAQATPPPQAE
Regarding B13, the response (photon counts) (ABA (5 μM), parent: est. 17000) was determined as 17000 and the response (photon counts) under setting [3] was 2200.

B14: H6-SUMO-tagged FePYR1 H73P (protein)
chain: MEQQPAAAEPEVPAGLGLTAAEYAELQPTVEAYHRYAVGPGQCSSLVAQRIEAPAAAVWAIVRRFDCPQVYKPFIRSCALRPDPDAGDELRPGRLREVSVISGLPASTSTERLDLLDDARRAFGFTITGGEHRLANYRSVTTVSELAPAAPAKICTVVLESYVVDVPEGNSEEDTRLFADTVVRLNLQKLKSLAEANATSAAAQATPPPQAE
For the molecule B14, the response (photon counts) was found to be 15000 (ABA (5 μM), parent: est. 17000) and 2000 under setting [3].

B15: H6-SUMO-tagged FePYR1 G103A (protein)
chain: MEQQPAAAEPEVPAGLGLTAAEYAELQPTVEAYHRYAVGPGQCSSLVAQRIEAPAAAVWAIVRRFDCPQVYKHFIRSCALRPDPDAGDELRPGRLREVSVISALPASTSTERLDLLDDARRAFGFTITGGEHRLANYRSVTTVSELAPAAPAKICTVVLESYVVDVPEGNSEEDTRLFADTVVRLNLQKLKSLAEANATSAAAQATPPPQAE
In the case of B15, the response (photon counts) (ABA (2 μM), parent: est. 6900) turned out to be 700; the response (photon counts) under setting [1] is 1800; the response (photon counts) under setting [2] was determined as 2800.

B16: H6-SUMO-tagged FePYR1 I75A (protein)
chain: MEQQPAAAEPEVPAGLGLTAAEYAELQPTVEAYHRYAVGPGQCSSLVAQRIEAPAAAVWAIVRRFDCPQVYKHFARSCALRPDPDAGDELRPGRLREVSVISGLPASTSTERLDLLDDARRAFGFTITGGEHRLANYRSVTTVSELAPAAPAKICTVVLESYVVDVPEGNSEEDTRLFADTVVRLNLQKLKSLAEANATSAAAQATPPPQAE
In the case of B16, the response (photon counts) amounted to 9600 (ABA (5 μM), parent: est. 17000) and 2600 under setting [3].

B17: H6-SUMO-tagged FePYR1 F178A (protein)
chain: MEQQPAAAEPEVPAGLGLTAAEYAELQPTVEAYHRYAVGPGQCSSLVAQRIEAPAAAVWAIVRRFDCPQVYKHFIRSCALRPDPDAGDELRPGRLREVSVISGLPASTSTERLDLLDDARRAFGFTITGGEHRLANYRSVTTVSELAPAAPAKICTVVLESYVVDVPEGNSEEDTRLAADTVVRLNLQKLKSLAEANATSAAAQATPPPQAE
Turning to B17, the response (photon counts) under setting [2] is 2500.

B18: H6-SUMO-tagged FePYR1 A106S (protein)
chain: MEQQPAAAEPEVPAGLGLTAAEYAELQPTVEAYHRYAVGPGQCSSLVAQRIEAPAAAVWAIVRRFDCPQVYKHFIRSCALRPDPDAGDELRPGRLREVSVISGLPSSTSTERLDLLDDARRAFGFTITGGEHRLANYRSVTTVSELAPAAPAKICTVVLESYVVDVPEGNSEEDTRLFADTVVRLNLQKLKSLAEANATSAAAQATPPPQAE
As to B18, the response (photon counts) under setting [2] came out at 2100.
